Experimental data as given in US20260234655A1, “Nuclear Targeted DNA Delivery and Compositions for Use in Practicing the Same” (Seawolf Therapeutics, Inc., priority 2022, published 2026).

How the values were obtained:
[1] = test system: primary human hepatocytes; assay: pDNAs containing DTSs transfected into primary human hepatocytes; GFP by quantitative live-cell imaging and FACS; assay type: cell-based; details: 24 h post-transfection
Description: DNA construct design. Each DTS was constructed in pentameric repeat using a 15 bp spacer between each TFBS. The DTS was appended just 5′ to the promoter, effectively in a putative enhancer region. Various promoters were employed in these constructs, including CBh (a variant of the CAG promoter) and TTR. Several reporter genes were employed in these constructs, including enhanced Green Fluorescent Protein (eGFP). The polyadenylation (polyA) signal is a BGH-PolyA sequence. For pooled screening, unique molecular identifiers (UMIs; also known as barcodes) were used to distinguish between DNA constructs in a pool, and the UMIs were appended to the 3′UTR immediately downstream of the stop codon of eGFP, just preceding the BGH-PolyA sequence.
Plasmid DNAs (pDNAs) containing various DTSs were transfected into primary human hepatocytes. GFP expression was quantified 24 h post-transfection by measuring GFP intensity using quantitative live-cell imaging, then cells were harvested and the % of GFP-positive cells was measured by FACS. A strong correlation between total GFP intensity and % GFP-positive cells was observed (FIG. 3A). The DTSs identified as hits (open circles) increased both the GFP intensity and the % GFP-positive cells compared to the Spacer negative control (FIG. 3A). […]

[2] = test system: growth-arrested HepG2 cells; assay: Pooled DTS screen in growth-arrested HepG2 cells; mRNA abundance by RNA-seq of UMIs; assay type: cell-based
Description: Library cloning. Pooled DTS libraries were designed as described above. To ensure the highest quality library production of oligos for cloning, oligo lengths were standardized to 300 bp. To accommodate this standardized length the core sequence of each DTS was embedded center-justified in a neutral fragment of random DNA sequence. The flanks of each oligo contained unique golden gate restriction enzyme digestion sites (Bsal) for cloning of double stranded DNA into screening vectors. […] The proper UMI/DTS barcode correlation (termed here the “library registry”) was determined via excision of the hTTR/eGFP fragments, re-ligation of the vector, PCR amplification of the corresponding proximal DTS and UMI regions, and sequencing on an Illumina Miseq (2×150 bp reads). […]
Quantification of mRNA abundance from pooled DTS screens. […] The PCR amplified cDNA was then library prepped (NEBNext library prep for Illumina) and sequenced on an Illumina Miseq (2×150 bp reads). Counts for each UMI were translated into the corresponding DTS using the UMI/Barcode registry and changes in abundance of each DTS were statistically analyzed using a custom R script. The log 2 fold change is calculated by comparing the RNA level in the pool vs. its expected abundance, which is derived from the abundance in the corresponding input DNA pool. […]

B1: NFKB: benchmark DTS with NF-κB binding sites in pentameric repeat (SEQ ID NO: 140) (nucleic acid)
DNA: GGGACTTTCCAGATTACTACTGATAGGGACTTTCCAGATTACTACTGATAGGGACTTTCCAGATTACTACTGATAGGGACTTTCCAGATTACTACTGATAGGGACTTTCC
modifications: DNA nuclear targeting sequence within DNA cargo construct, further chemistry not given here
gene expression compared to the pDNA with no DTS [1]: robust increases
increase in GFP intensity compared to the pDNA with no DTS [1]: ~10 fold
mRNA abundance in pooled screen relative to Spacer negative control [2]: robust increases
